Assay results taken from US20220332844A1 (ORIONIS BIOSCIENCES, published 2022).

T1: recombinant FAP protein (BioLegend), biotinylated (Homo sapiens (Human), UniProt Q12884 26-760, Biotinylated (sites not given) for loading on streptavidin sensors. Any vendor tag is not stated in the passages shown.)
T1 construct: Loaded on streptavidin sensors for BLI; also called biotinylated FAP
T1 sequence: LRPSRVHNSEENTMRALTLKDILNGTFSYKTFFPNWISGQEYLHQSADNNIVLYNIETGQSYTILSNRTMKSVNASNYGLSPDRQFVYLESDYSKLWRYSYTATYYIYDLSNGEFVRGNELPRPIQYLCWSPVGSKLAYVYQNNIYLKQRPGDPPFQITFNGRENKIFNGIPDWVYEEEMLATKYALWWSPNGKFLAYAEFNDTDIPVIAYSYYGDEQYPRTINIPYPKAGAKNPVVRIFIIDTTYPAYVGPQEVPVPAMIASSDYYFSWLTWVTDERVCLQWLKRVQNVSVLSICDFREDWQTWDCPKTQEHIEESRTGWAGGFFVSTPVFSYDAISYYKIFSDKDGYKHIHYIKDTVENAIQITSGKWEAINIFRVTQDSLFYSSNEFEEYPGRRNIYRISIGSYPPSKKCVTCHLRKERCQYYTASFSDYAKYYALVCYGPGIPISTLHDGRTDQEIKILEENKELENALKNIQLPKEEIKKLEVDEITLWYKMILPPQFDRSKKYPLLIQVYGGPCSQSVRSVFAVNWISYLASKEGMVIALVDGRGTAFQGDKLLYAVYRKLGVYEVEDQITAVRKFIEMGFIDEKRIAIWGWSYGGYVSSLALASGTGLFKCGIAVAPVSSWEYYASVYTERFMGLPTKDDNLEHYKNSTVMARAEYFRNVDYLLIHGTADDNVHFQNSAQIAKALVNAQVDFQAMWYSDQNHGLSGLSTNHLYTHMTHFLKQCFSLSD


Molecular target: T1, recombinant FAP protein (BioLegend), …
Assay: BLI (Octet RED96), biotinylated FAP on streptavidin sensors

Row | Binder | Kd [nM]
1 | P-1901: 2PE14 (VHH, also called pET28 PelB-2PE14) VHH: QVQLQESGGGLVQPGGSLRLSCAASGSTFSINAVAWYRQAPGKRRELVAGISGGGVTNYPDSVKGRFTISRDNAKNTVYLQMSSLKPEDTAVYYCNLWPPRASPGGRVYWGQGTQVTVSS | 0.667
2 | P-1908: 2PE14_N32E (VHH, also called pET28 PelB-2PE14_N32E) VHH: QVQLQESGGGLVQPGGSLRLSCAASGSTFSIEAVAWYRQAPGKRRELVAGISGGGVTNYPDSVKGRFTISRDNAKNTVYLQMSSLKPEDTAVYYCNLWPPRASPGGRVYWGQGTQVTVSS | 1.09
3 | P-1920: 2PE14_N32V (VHH, also called pET28 PelB-2PE14_N32V) VHH: QVQLQESGGGLVQPGGSLRLSCAASGSTFSIVAVAWYRQAPGKRRELVAGISGGGVTNYPDSVKGRFTISRDNAKNTVYLQMSSLKPEDTAVYYCNLWPPRASPGGRVYWGQGTQVTVSS | 100
4 | P-1907: 2PE14_N32D (VHH, also called pET28 PelB-2PE14_N32D) VHH: QVQLQESGGGLVQPGGSLRLSCAASGSTFSIDAVAWYRQAPGKRRELVAGISGGGVTNYPDSVKGRFTISRDNAKNTVYLQMSSLKPEDTAVYYCNLWPPRASPGGRVYWGQGTQVTVSS | 10.8
5 | P-1909: 2PE14_N32F (VHH, also called pET28 PelB-2PE14_N32F) VHH: QVQLQESGGGLVQPGGSLRLSCAASGSTFSIFAVAWYRQAPGKRRELVAGISGGGVTNYPDSVKGRFTISRDNAKNTVYLQMSSLKPEDTAVYYCNLWPPRASPGGRVYWGQGTQVTVSS | 0.468
6 | P-1906: 2PE14_N32A (VHH, also called pET28 PelB-2PE14_N32A) VHH: QVQLQESGGGLVQPGGSLRLSCAASGSTFSIAAVAWYRQAPGKRRELVAGISGGGVTNYPDSVKGRFTISRDNAKNTVYLQMSSLKPEDTAVYYCNLWPPRASPGGRVYWGQGTQVTVSS | 3.56
7 | P-1910: 2PE14_N32G (VHH, also called pET28 PelB-2PE14_N32G) VHH: QVQLQESGGGLVQPGGSLRLSCAASGSTFSIGAVAWYRQAPGKRRELVAGISGGGVTNYPDSVKGRFTISRDNAKNTVYLQMSSLKPEDTAVYYCNLWPPRASPGGRVYWGQGTQVTVSS | 4.62
8 | P-1911: 2PE14_N32H (VHH, also called pET28 PelB-2PE14_N32H) VHH: QVQLQESGGGLVQPGGSLRLSCAASGSTFSIHAVAWYRQAPGKRRELVAGISGGGVTNYPDSVKGRFTISRDNAKNTVYLQMSSLKPEDTAVYYCNLWPPRASPGGRVYWGQGTQVTVSS | 3.69
9 | P-1917: 2PE14_N32R (VHH, also called pET28 PelB-2PE14_N32R) VHH: QVQLQESGGGLVQPGGSLRLSCAASGSTFSIRAVAWYRQAPGKRRELVAGISGGGVTNYPDSVKGRFTISRDNAKNTVYLQMSSLKPEDTAVYYCNLWPPRASPGGRVYWGQGTQVTVSS | 0.317
10 | P-1912: 2PE14_N32I (VHH, also called pET28 PelB-2PE14_N32I) VHH: QVQLQESGGGLVQPGGSLRLSCAASGSTFSIIAVAWYRQAPGKRRELVAGISGGGVTNYPDSVKGRFTISRDNAKNTVYLQMSSLKPEDTAVYYCNLWPPRASPGGRVYWGQGTQVTVSS | 16.8
11 | P-1902: 2PE14_opt1 (Q1D_Q5V_A74S_K83R_Q108L) (VHH, also called pET28 PelB-2PE14_opt1) VHH: DVQLVESGGGLVQPGGSLRLSCAASGSTFSINAVAWYRQAPGKRRELVAGISGGGVTNYPDSVKGRFTISRDNSKNTVYLQMSSLRPEDTAVYYCNLWPPRASPGGRVYWGQGTLVTVSS | 0.0951
12 | P-1903: 2PE14_opt2 (Q1D_Q5V_P60A_A74S_K83R_Q108L) (VHH, also called pET28 PelB-2PE14_opt2 (idem + P60A)) VHH: DVQLVESGGGLVQPGGSLRLSCAASGSTFSINAVAWYRQAPGKRRELVAGISGGGVTNYADSVKGRFTISRDNSKNTVYLQMSSLRPEDTAVYYCNLWPPRASPGGRVYWGQGTLVTVSS | 2.26
13 | P-1904: 2PE14_opt3 (Q1D_Q5V_A74S_S82N_K83R_Q108L) (VHH, also called pET28 PelB-2PE14_opt3 (idem + S82N)) VHH: DVQLVESGGGLVQPGGSLRLSCAASGSTFSINAVAWYRQAPGKRRELVAGISGGGVTNYPDSVKGRFTISRDNSKNTVYLQMNSLRPEDTAVYYCNLWPPRASPGGRVYWGQGTLVTVSS | 0.653
14 | P-1918: 2PE14_N32S (VHH, also called pET28 PelB-2PE14_N32S) VHH: QVQLQESGGGLVQPGGSLRLSCAASGSTFSISAVAWYRQAPGKRRELVAGISGGGVTNYPDSVKGRFTISRDNAKNTVYLQMSSLKPEDTAVYYCNLWPPRASPGGRVYWGQGTQVTVSS | 556
15 | P-1915: 2PE14_N32P (VHH, also called pET28 PelB-2PE14_N32P) VHH: QVQLQESGGGLVQPGGSLRLSCAASGSTFSIPAVAWYRQAPGKRRELVAGISGGGVTNYPDSVKGRFTISRDNAKNTVYLQMSSLKPEDTAVYYCNLWPPRASPGGRVYWGQGTQVTVSS | 1.17
16 | P-1913: 2PE14_N32K (VHH, also called pET28 PelB-2PE14_N32K) VHH: QVQLQESGGGLVQPGGSLRLSCAASGSTFSIKAVAWYRQAPGKRRELVAGISGGGVTNYPDSVKGRFTISRDNAKNTVYLQMSSLKPEDTAVYYCNLWPPRASPGGRVYWGQGTQVTVSS | 2.67
17 | P-1919: 2PE14_N32T (VHH, also called pET28 PelB-2PE14_N32T) VHH: QVQLQESGGGLVQPGGSLRLSCAASGSTFSITAVAWYRQAPGKRRELVAGISGGGVTNYPDSVKGRFTISRDNAKNTVYLQMSSLKPEDTAVYYCNLWPPRASPGGRVYWGQGTQVTVSS | 4.11
18 | P-1905: 2PE14_opt4 (Q1D_Q5V_P60A_A74S_S82N_K83R_Q108L) (VHH) VHH: DVQLVESGGGLVQPGGSLRLSCAASGSTFSINAVAWYRQAPGKRRELVAGISGGGVTNYADSVKGRFTISRDNSKNTVYLQMNSLRPEDTAVYYCNLWPPRASPGGRVYWGQGTLVTVSS | 3.76
19 | P-1916: 2PE14_N32Q (VHH, also called pET28 PelB-2PE14_N32Q) VHH: QVQLQESGGGLVQPGGSLRLSCAASGSTFSIQAVAWYRQAPGKRRELVAGISGGGVTNYPDSVKGRFTISRDNAKNTVYLQMSSLKPEDTAVYYCNLWPPRASPGGRVYWGQGTQVTVSS | 0.386
20 | P-1914: 2PE14_N32L (VHH, also called pET28 PelB-2PE14_N32L) VHH: QVQLQESGGGLVQPGGSLRLSCAASGSTFSILAVAWYRQAPGKRRELVAGISGGGVTNYPDSVKGRFTISRDNAKNTVYLQMSSLKPEDTAVYYCNLWPPRASPGGRVYWGQGTQVTVSS | 1.25

Next, values leading:

Row | Kd [nM] | Binder
21 | 14.5 | P-1922: 2PE14_N32Y (VHH, also called pET28 PelB-2PE14_N32Y) VHH: QVQLQESGGGLVQPGGSLRLSCAASGSTFSIYAVAWYRQAPGKRRELVAGISGGGVTNYPDSVKGRFTISRDNAKNTVYLQMSSLKPEDTAVYYCNLWPPRASPGGRVYWGQGTQVTVSS
22 | 4.02 | P-1928: 3PE42_M31G (VHH, also called pET28 PelB-3PE42_M42G) VHH: QVQLQESGGGLVQPGESLRLSCAVSGSTSSGNAMAWYRQAPGKRRELVAGISGGGATNYPDSVKGRFTISRDNAKNTVYLQMSSLKPEDTAVYYCNLWPPRASPGGGVYWGQGTQVTVSS
23 | 0.221 | P-1921: 2PE14_N32W (VHH, also called pET28 PelB-2PE14_N32W) VHH: QVQLQESGGGLVQPGGSLRLSCAASGSTFSIWAVAWYRQAPGKRRELVAGISGGGVTNYPDSVKGRFTISRDNAKNTVYLQMSSLKPEDTAVYYCNLWPPRASPGGRVYWGQGTQVTVSS
24 | 0.165 | P-1925: 3PE42_M31D (VHH, also called pET28 PelB-3PE42_M42D) VHH: QVQLQESGGGLVQPGESLRLSCAVSGSTSSDNAMAWYRQAPGKRRELVAGISGGGATNYPDSVKGRFTISRDNAKNTVYLQMSSLKPEDTAVYYCNLWPPRASPGGGVYWGQGTQVTVSS
25 | 0.588 | P-1923: 3PE42 (VHH, also called pET28 PelB-3PE42) VHH: QVQLQESGGGLVQPGESLRLSCAVSGSTSSMNAMAWYRQAPGKRRELVAGISGGGATNYPDSVKGRFTISRDNAKNTVYLQMSSLKPEDTAVYYCNLWPPRASPGGGVYWGQGTQVTVSS
26 | 1.17 | P-1927: 3PE42_M31F (VHH, also called pET28 PelB-3PE42_M42F) VHH: QVQLQESGGGLVQPGESLRLSCAVSGSTSSFNAMAWYRQAPGKRRELVAGISGGGATNYPDSVKGRFTISRDNAKNTVYLQMSSLKPEDTAVYYCNLWPPRASPGGGVYWGQGTQVTVSS
27 | 0.0889 | P-1924: 3PE42_M31A (VHH, also called pET28 PelB-3PE42_M42A) VHH: QVQLQESGGGLVQPGESLRLSCAVSGSTSSANAMAWYRQAPGKRRELVAGISGGGATNYPDSVKGRFTISRDNAKNTVYLQMSSLKPEDTAVYYCNLWPPRASPGGGVYWGQGTQVTVSS
28 | 2.87 | P-1930: 3PE42_M31I (VHH, also called pET28 PelB-3PE42_M42I) VHH: QVQLQESGGGLVQPGESLRLSCAVSGSTSSINAMAWYRQAPGKRRELVAGISGGGATNYPDSVKGRFTISRDNAKNTVYLQMSSLKPEDTAVYYCNLWPPRASPGGGVYWGQGTQVTVSS
29 | 1.85 | P-1926: 3PE42_M31E (VHH, also called pET28 PelB-3PE42_M42E) VHH: QVQLQESGGGLVQPGESLRLSCAVSGSTSSENAMAWYRQAPGKRRELVAGISGGGATNYPDSVKGRFTISRDNAKNTVYLQMSSLKPEDTAVYYCNLWPPRASPGGGVYWGQGTQVTVSS
30 | 1.12 | P-1929: 3PE42_M31H (VHH, also called pET28 PelB-3PE42_M42H) VHH: QVQLQESGGGLVQPGESLRLSCAVSGSTSSHNAMAWYRQAPGKRRELVAGISGGGATNYPDSVKGRFTISRDNAKNTVYLQMSSLKPEDTAVYYCNLWPPRASPGGGVYWGQGTQVTVSS
